According to US20200247894A1 (Regeneron, published 2020):

Legend:
[1] = target: T1, Human IL2Rγ extracellular domain expressed with a C-terminal myc-myc-hexahistidine tag (human); assay: SPR, captured mAb, 37C, dissociation pH 6.0
T1 construct: also called hIL-2Rg-MMH; hIL-2RG-MMH
T1 chain: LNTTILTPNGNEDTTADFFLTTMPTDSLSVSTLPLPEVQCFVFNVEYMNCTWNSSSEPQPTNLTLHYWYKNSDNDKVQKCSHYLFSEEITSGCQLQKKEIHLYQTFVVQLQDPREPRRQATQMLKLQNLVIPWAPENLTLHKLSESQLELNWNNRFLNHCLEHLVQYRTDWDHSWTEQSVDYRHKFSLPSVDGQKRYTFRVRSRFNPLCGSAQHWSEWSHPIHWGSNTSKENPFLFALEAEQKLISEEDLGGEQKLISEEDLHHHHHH
Procedure: (§1) The dissociation rate constant (kd) for binding of IL-2Rγ reagents to purified anti-IL2Rγ monoclonal antibodies was determined using a real-time surface plasmon resonance based Biacore 4000 biosensor platform. […] The CM5 Biacore sensor surface derivatized by amine coupling with monoclonal mouse anti-human Fc antibody (GE, Catalog # BR-1008-39) was used to capture anti-IL2Rγ monoclonal antibodies expressed with human IgG4 Fc. All the IL2Rγ reagents were expressed with a C-terminal myc-myc-hexahistidine tag (subsequently referred to with a -MMH suffix). […] The dissociation of bound IL-2Rg-MMH was performed in PBS-T-pH7.4 or PBS-T-pH6.0 running buffers for 6 minutes.
(§2) Dissociation rate constants (kd) in two running buffers were determined by fitting the real-time binding sensorgrams to a 1:1 binding model using Scrubber 2.0c curve-fitting software. Values of dissociation rate for […] mAb binding to hIL-2RG-MMH and mfIL-2RG-MMH at 25° C. and 37° C. in PBS-T-pH7.4 and PBS-T-pH6.0 is shown in Table 2-1 through Table 2-8.

[2] = target: T2, Macaca fascicularis IL2Rγ extracellular domain expressed with a C-terminal myc-myc-hexahistidine tag (Macaca fascicularis); assay: SPR, captured mAb, 25C, dissociation pH 6.0
T2 construct: also called mfIL-2Rg-MMH; mfIL-2RG-MMH
T2 chain: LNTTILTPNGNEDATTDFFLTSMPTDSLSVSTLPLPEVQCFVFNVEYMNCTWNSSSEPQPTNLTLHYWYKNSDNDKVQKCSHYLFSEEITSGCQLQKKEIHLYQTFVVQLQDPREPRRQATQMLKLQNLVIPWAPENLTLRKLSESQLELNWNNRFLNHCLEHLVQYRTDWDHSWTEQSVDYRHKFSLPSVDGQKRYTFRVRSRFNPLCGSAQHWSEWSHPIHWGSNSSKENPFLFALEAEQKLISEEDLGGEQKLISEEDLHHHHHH
Procedure: as §1, §2

[3] = target: T1, Human IL2Rγ extracellular domain …; assay: SPR, captured mAb, 25C, dissociation pH 6.0
Procedure: as §1, §2

[4] = target: T1, Human IL2Rγ extracellular domain …; assay: SPR, captured mAb, 37C, dissociation pH 7.4
Procedure: as §1, §2

[5] = target: T2, Macaca fascicularis IL2Rγ extracellular …; assay: SPR, captured mAb, 25C, dissociation pH 7.4
Procedure: as §1, §2

[6] = target: T1, Human IL2Rγ extracellular domain …; assay: SPR, captured mAb, 25C, dissociation pH 7.4
Procedure: as §1, §2

Binder | 100 nM Ag Bound (RU) [1] | koff [1] | t1/2 [1] | 100 nM Ag Bound (RU) [2] | koff [2] | t1/2 [2] | 100 nM Ag Bound (RU) [3] | koff [3] | t1/2 [3] | 100 nM Ag Bound (RU) [4] | koff [4] | t1/2 [4] | 100 nM Ag Bound (RU) [5] | koff [5] | t1/2 [5] | 100 nM Ag Bound (RU) [6] | koff [6] | t1/2 [6]
H4H12871P (antibody, human IgG4 S228P, kappa, V domains shown, anti-IL2Rgamma mAb expressed with human IgG4 Fc; also called REGN9434) VH: QVQLQESGPGLVKPSQTLSLTCTVSGGSITSGGYYWSWIRQYPGQGLEWIGYIYYSGKTYYNPSFTSRITISVDTSKKQFSLKMSSVTAADTAVYYCARAGFTSSNGWFDPWGQGTLVTVSS VL: DIQMTQSPSSLSASVGDRVTITCRASQNIRSYLNWYQQKPGKAPKLLIYSASSLQSGVPSRFSGSGSGTDFTLTISSLQPEDFPTYYCQQTYSSPWTFGPGTKVEIKR | 141 RU | 0.00246 s⁻¹ | 5 min | 128 RU | 0.00116 s⁻¹ | 10 min | 129 RU | 0.00136 s⁻¹ | 8 min | 139 RU | 0.00111 s⁻¹ | 10 min | 125 RU | 0.000481 s⁻¹ | 24 min | 121 RU | 0.000596 s⁻¹ | 19 min
H4H12889P (antibody, human IgG4 S228P, kappa, V domains shown, anti-IL2Rgamma mAb expressed with human IgG4 Fc; also called REGN7257) VH: EVQLVESGGGLVQPGGSLRLSCAASGFIFSSYEMHWVRQAPGKGLEWISYISSSGTTIYYADSVKGRFTISRDNAKNSLYLHMNSLRAEDTAVYYCTRARITGTFDVFDIWGQGTMVTVSS VL: DIQMTQSPSSLSASVGDRVTITCRASQSISSYLNWYQQKPGKAPKLLIFAASNLQSGVPSRFSGSRSGTDFTLTISSLQPEDFATYYCQQNYNIPYTFGQGTKLEIKR | 153 RU | 0.00188 s⁻¹ | 6 min | 126 RU | 0.000434 s⁻¹ | 27 min | 130 RU | 0.000437 s⁻¹ | 26 min | 147 RU | 0.000636 s⁻¹ | 18 min | 123 RU | 0.000157 s⁻¹ | 74 min | 118 RU | 0.000138 s⁻¹ | 84 min
H4H12884P (antibody, human IgG4 S228P, kappa, V domains shown, anti-IL2Rgamma mAb expressed with human IgG4 Fc) VH: QVQLQESGPGLVKPSQTLSLTCTVSGGSISSGGYYWSWIRQHPGKGLEWIGFIYYSGKTYYNPSLKSRLTISVDTSKSQFSLKLRSVTAADTAVYYCARLGYTNSAGWFDPWGQGTLVTVSS VL: DIQMTQSPSSLSASVGDRVTITCRASQSISSYLNWYQQKPGKAPNLLIYAASSLQSGVPSRFSGSGSGTDFTLTISSLQPEDLATYYCQQSYTTPFTFGPGTKVDIKR | 136 RU | 0.00379 s⁻¹ | 3 min | 133 RU | 0.00159 s⁻¹ | 7 min | 135 RU | 0.00199 s⁻¹ | 6 min | 171 RU | 0.00151 s⁻¹ | 8 min | 160 RU | 0.000516 s⁻¹ | 22 min | 161 RU | 0.00064 s⁻¹ | 18 min
H4H12886P (antibody, human IgG4 S228P, kappa, V domains shown, anti-IL2Rgamma mAb expressed with human IgG4 Fc) VH: EVQLVESGGGLVKPGGSLRLSCAASGFTFSTAWMSWVRQSPGRGLEWVGRMKSKTDGGTTFYAAPVKGRFTISRDDSKNTLYLQMNSLKTEDTAVYYCTTGLVPAFYKYYGVDVWGQGTTVTVSS VL: DIQMTQSPSSLSASVGDRITITCQASQDITNYLNWYQQKPGKAPNLLIYDASNLVTGVPSRFSGSGSGTDFTFTILSLQPEDIATYYCQQYDSLLTFGPGTKVDIKR | 115 RU | 0.00216 s⁻¹ | 5 min | 83 RU | 0.000682 s⁻¹ | 17 min | 84 RU | 0.000634 s⁻¹ | 18 min | 146 RU | 0.000519 s⁻¹ | 22 min | 113 RU | 0.000175 s⁻¹ | 66 min | 113 RU | 0.000155 s⁻¹ | 75 min
H4H12863P (antibody, human IgG4 S228P, kappa, V domains shown, anti-IL2Rgamma mAb expressed with human IgG4 Fc) VH: QVQLVESGGGVVQPGRSLRLSCTASGFTFRSYDMYWVRQAPGKGLEWVSVITYDGNNKYYADSVKGRFTISRDNSKNTLFLQMSSLRPEDTAVYYCAKRGLIWVGESFDYWGQGTLVTVSS VL: DIQMTQSPSTLSASVGDRVTITCRASQSINSWLAWYQQKPGKAPNLLIYKASSLESGVPSRFSGSGSGTEFTLTISSLQPDDFATYYCQQYKSYSWTFGQGTKVEIKR | 145 RU | 0.00226 s⁻¹ | 5 min | 118 RU | 0.000761 s⁻¹ | 15 min | 116 RU | 0.000762 s⁻¹ | 15 min | 176 RU | 0.000672 s⁻¹ | 17 min | 155 RU | 0.000194 s⁻¹ | 59 min | 151 RU | 0.000172 s⁻¹ | 67 min
H4H12874P (antibody, human IgG4 S228P, kappa, V domains shown, anti-IL2Rgamma mAb expressed with human IgG4 Fc) VH: QVQLVESGGGVVQPGRSLRLSCAASGFNFRNFGMHWVRQAPGKGLEWVAGILYDGSSKYYADSVKDRFTISRDNSKNTLFLQMNSLRAEDTAMYYCAKEEDTAMVPFDSWGPGTLVTVSS VL: DIQLTQSPSFLSASVGDRVTITCWASQGISSYLAWYQQKPGKAPTLLIYAASTLQSGVPSRFSGSGSGTEFTLTISSLQPEDFASYYCQQLKSYPLTFGGGTKVEIKR | 91 RU | 0.00261 s⁻¹ | 4 min | 64 RU | 0.000729 s⁻¹ | 16 min | 66 RU | 0.000724 s⁻¹ | 16 min | 99 RU | 0.000572 s⁻¹ | 20 min | 73 RU | 0.000164 s⁻¹ | 70 min | 72 RU | 0.000162 s⁻¹ | 71 min
